According to paper PMC3673982 (PLoS ONE, 2013):

Biological target: the molecule itself
Assay: cross-linking; 35 µM protein in 50 mM phosphate pH 7.4, 150 mM NaCl, preincubated at 37°C for 30 min; BS2G d0/d4 at 20-fold molar excess (50- and 100-fold also tested), 1 h on ice, quenched with Tris; read by 4-20% SDS-PAGE with Coomassie stain

B1: Human recombinant αA-G98R crystallin (natural protein, UniProt P02489 1-173, looked up)
chain: MDVTIQHPWFKRTLGPFYPSRLFDQFFGEGLFEYDLLPFLSSTISPYYRQSLFRTVLDSGISEVRSDRDKFVIFLDVKHFSPEDLTVKVQDDFVEIHRKHNERQDDHGYISREFHRRYRLPSNVDQSALSCSLSADGMLTFCGPKIQTGLDATHAERAIPVSREEKPTSAPSS
binding result: binds
